# Reference: patent US20220411521A1 (Ablynx, published 2022)
# T1: human GITR (human, UniProt Q9Y5U5 26-241)
# T1 sequence: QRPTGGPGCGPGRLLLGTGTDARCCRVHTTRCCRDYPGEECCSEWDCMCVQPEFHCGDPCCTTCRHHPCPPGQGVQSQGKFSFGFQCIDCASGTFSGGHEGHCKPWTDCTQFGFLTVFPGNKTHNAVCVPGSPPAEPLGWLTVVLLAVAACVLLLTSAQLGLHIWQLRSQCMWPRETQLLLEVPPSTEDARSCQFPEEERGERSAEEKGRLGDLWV
# T2: human GITR-Fc (Enzo Life Sciences, ALX-522-061-C050) (human, UniProt Q9Y5U5 26-162)
# T2 construct: Bought protein; not shown: Fc part of the bought fusion protein; not described
# T2 sequence: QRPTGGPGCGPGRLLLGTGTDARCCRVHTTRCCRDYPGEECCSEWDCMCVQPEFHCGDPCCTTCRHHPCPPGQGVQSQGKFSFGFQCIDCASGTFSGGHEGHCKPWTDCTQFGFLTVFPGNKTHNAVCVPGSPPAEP
# B1: A023100127 (VHH)
# chain: DVQLVESGGGVVQPGGSLRLSCAASGSIFSIDSMGWYRQAPGKQRELVAAITSSTNYADSVKGRFTISRDNSKNTVYLQMNSLRPEDTALYYCNLEGQAGWGTALINYWGQGTLVTVSSGGGGSGGGSEVQLVESGGGVVQPGGSLRLSCAASGSIFSIDSMGWYRQAPGKQRELVAAITSSTNYADSVKGRFTISRDNSKNTVYLQMNSLRPEDTALYYCNLEGQAGWGTALINYWGQGTLVTVSSGGGGSGGGSEVQLVESGGGVVQPGGSLRLSCAASGSIFSIDSMGWYRQAPGKQRELVAAITSSTNYADSVKGRFTISRDNSKNTVYLQMNSLRPEDTALYYCNLEGQAGWGTALINYWGQGTLVTVSSGGGGSGGGSEVQLVESGGGVVQPGGSLRLSCAASGSIFSIDSMGWYRQAPGKQRELVAAITSSTNYADSVKGRFTISRDNSKNTVYLQMNSLRPEDTALYYCNLEGQAGWGTALINYWGQGTLVTVSSGGGGSGGGGSGGGGSGGGGSGGGGSGGGGSGGGGSEVQLVESGGGVVQPGGSLRLSCAASGFTFRSFGMSWVRQAPGKGPEWVSSISGSGSDTLYADSVKGRFTISRDNSKNTLYLQMNSLRPEDTALYYCTIGGSLSRSSQGTLVTVSSA
# B2: A023100107 (VHH)
# chain: DVQLVESGGGVVQPGGSLRLSCAASETIFSIDSMAWYRQAPGKQRELVAAITGGGSPNYADSVKGRFTISSDVSKRTVYLQMNSLRPEDTALYYCNAEGQAGWGTALLDYWGQGTLVTVSSGGGGSGGGSEVQLVESGGGVVQPGGSLRLSCAASETIFSIDSMAWYRQAPGKQRELVAAITGGGSPNYADSVKGRFTISSDVSKRTVYLQMNSLRPEDTALYYCNAEGQAGWGTALLDYWGQGTLVTVSSGGGGSGGGSEVQLVESGGGVVQPGGSLRLSCAASETIFSIDSMAWYRQAPGKQRELVAAITGGGSPNYADSVKGRFTISSDVSKRTVYLQMNSLRPEDTALYYCNAEGQAGWGTALLDYWGQGTLVTVSSGGGGSGGGSEVQLVESGGGVVQPGGSLRLSCAASETIFSIDSMAWYRQAPGKQRELVAAITGGGSPNYADSVKGRFTISSDVSKRTVYLQMNSLRPEDTALYYCNAEGQAGWGTALLDYWGQGTLVTVSSGGGGSGGGGSGGGGSGGGGSGGGGSGGGGSGGGGSEVQLVESGGGVVQPGGSLRLSCAASGFTFRSFGMSWVRQAPGKGPEWVSSISGSGSDTLYADSVKGRFTISRDNSKNTLYLQMNSLRPEDTALYYCTIGGSLSRSSQGTLVTVSSA
# B3: A023100101 (VHH)
# chain: DVQLVESGGGVVQPGGSLRLSCAASETIFSIDSMAWYRQAPGKQRELVAAITGGGSPNYADSVKGRFTISSDVSKRTVYLQMNSLRPEDTALYYCNAEGQAGWGTALLDYWGQGTLVTVSSGGGGSGGGSEVQLVESGGGVVQPGGSLRLSCAASETIFSIDSMAWYRQAPGKQRELVAAITGGGSPNYADSVKGRFTISSDVSKRTVYLQMNSLRPEDTALYYCNAEGQAGWGTALLDYWGQGTLVTVSSGGGGSGGGSEVQLVESGGGVVQPGGSLRLSCAASETIFSIDSMAWYRQAPGKQRELVAAITGGGSPNYADSVKGRFTISSDVSKRTVYLQMNSLRPEDTALYYCNAEGQAGWGTALLDYWGQGTLVTVSSGGGGSGGGGSGGGGSGGGGSGGGGSGGGGSGGGGSEVQLVESGGGVVQPGGSLRLSCAASGFTFRSFGMSWVRQAPGKGPEWVSSISGSGSDTLYADSVKGRFTISRDNSKNTLYLQMNSLRPEDTALYYCTIGGSLSRSSQGTLVTVSSA
# B4: A023100118 (VHH)
# chain: DVQLVESGGGVVQPGGSLRLSCAASETIFSIDSMAWYRQAPGKQRELVAAITGGGSPNYADSVKGRFTISSDVSKRTVYLQMNSLRPEDTALYYCNAEGQAGWGTALLDYWGQGTLVTVSSGGGGSGGGSEVQLVESGGGVVQPGGSLRLSCAASETIFSIDSMAWYRQAPGKQRELVAAITGGGSPNYADSVKGRFTISSDVSKRTVYLQMNSLRPEDTALYYCNAEGQAGWGTALLDYWGQGTLVTVSSGGGGSGGGSEVQLVESGGGVVQPGGSLRLSCAASETIFSIDSMAWYRQAPGKQRELVAAITGGGSPNYADSVKGRFTISSDVSKRTVYLQMNSLRPEDTALYYCNAEGQAGWGTALLDYWGQGTLVTVSSGGGGSGGGSEVQLVESGGGVVQPGGSLRLSCAASETIFSIDSMAWYRQAPGKQRELVAAITGGGSPNYADSVKGRFTISSDVSKRTVYLQMNSLRPEDTALYYCNAEGQAGWGTALLDYWGQGTLVTVSSGGGGSGGGSEVQLVESGGGVVQPGGSLRLSCAASETIFSIDSMAWYRQAPGKQRELVAAITGGGSPNYADSVKGRFTISSDVSKRTVYLQMNSLRPEDTALYYCNAEGQAGWGTALLDYWGQGTLVTVSSGGGGSGGGGSGGGGSGGGGSGGGGSGGGGSGGGGSEVQLVESGGGVVQPGGSLRLSCAASGFTFRSFGMSWVRQAPGKGPEWVSSISGSGSDTLYADSVKGRFTISRDNSKNTLYLQMNSLRPEDTALYYCTIGGSLSRSSQGTLVTVSSA
# B5: A0231051E01 (VHH)
# VHH: EVQLVESGGGLVQAGGSLRLSCAASGSIFSFIVMGWYRQAPGEQRALVATVTSGGDTFYVDSVKDRFTISRDNAKNTVYLQMNSLKPEDTAVYFCYFTKVSPYKETTWGQGTLVTVSS
# notes: Monovalent Nanobody expressed in E. coli with a triple Flag, HIS6 tag; also called A0231PMP051E01; PA0231PMP051E01.1; not shown: C-terminal triple FLAG and HIS6 tag
# B6: A0231052E08 (VHH)
# VHH: EVQLVESGGGLVQAGGSLRLSCTGSRSIFSTYAMAWHRQAPGKQRELVGFIYWGGTTTYSDSVKGRFTISRDNAKNTMYLQMNSLKPEDAGVYYCNIYGSYALPWGQGTLVTVSS
# notes: Monovalent Nanobody expressed in E. coli with a triple Flag, HIS6 tag; also called A0231PMP052E08; PA0231PMP052E08.1; not shown: C-terminal triple FLAG and HIS6 tag
# B7: A023100105 (VHH)
# chain: DVQLVESGGGVVQPGGSLRLSCAASGSIFSIDSMGWYRQAPGKQRELVAAITSSTNYADSVKGRFTISRDNSKNTVYLQMNSLRPEDTALYYCNLEGQAGWGTALINYWGQGTLVTVSSGGGGSGGGSEVQLVESGGGVVQPGGSLRLSCAASGSIFSIDSMGWYRQAPGKQRELVAAITSSTNYADSVKGRFTISRDNSKNTVYLQMNSLRPEDTALYYCNLEGQAGWGTALINYWGQGTLVTVSSGGGGSGGGSEVQLVESGGGVVQPGGSLRLSCAASGSIFSIDSMGWYRQAPGKQRELVAAITSSTNYADSVKGRFTISRDNSKNTVYLQMNSLRPEDTALYYCNLEGQAGWGTALINYWGQGTLVTVSSGGGGSGGGGSGGGGSGGGGSGGGGSGGGGSGGGGSEVQLVESGGGVVQPGGSLRLSCAASGFTFRSFGMSWVRQAPGKGPEWVSSISGSGSDTLYADSVKGRFTISRDNSKNTLYLQMNSLRPEDTALYYCTIGGSLSRSSQGTLVTVSSA
# Target: T1, human GITR
# Experiment: cell-based or functional assay
"EC50, HEK293_NF-κB luc reporter [nM]","Efficacy (%), human GITR ligand = 100%, HEK293_NF-κB luc reporter [%]",Binder
0.0157,150,B1
0.0147,147,B2
0.02,136,B3
0.0128,140,B4

# Target: T2, human GITR-Fc (Enzo Life Sciences, …)
# Experiment: ProteOn XPR36; human GITR-Fc amine-coupled on GLC chip, Nanobody injected at 6 concentrations
# Method: Affinity was determined on the Proteon XPR36. Briefly, after human GITR-Fc (Enzo Life Sciences, ALX-522-061-C050) was immobilized on a GLC chip via amine coupling, a range of 6 concentrations of different monovalent Nanobodies (representing each family) were injected. The Ko values were determined by using the calculated association rate and dissociation rate constants (Table 1) (ProteOn Manager 3.1.0, Version 3.1.0.6 (2011)).
Kd [nM],koff [s⁻¹],kon [M⁻¹ s⁻¹],Binder
78,0.015,190000,B5
120,0.09,750000,B6

# Target: T1, human GITR
# Experiment: cell-based or functional assay
# Remark: another data set of the same source
"EC50, IFN-γ read-out, human T cell activation assay [nM]","Maximal efficacy (%), human GITR ligand = 100%, IFN-γ read-out [%]",Binder
0.0587,86.8,B1
0.0646,99.8,B2
0.06,97,B7
0.0642,92.6,B3
0.0426,95.6,B4
